In the experiment the target is Helicoverpa armigera gut proteases (HGP) (Helicoverpa armigera). The experiment can be described thus: cell-based or functional assay.

B1: inhibitory repeat domain IRD-9 of Capsicum annuum Pin-II proteinase inhibitors (CanPIs) (peptide)
chain: QPICTNSSAGLKGCNYYNADGTFICEGESDPNHPKACPKNCDPNIAYSLC
Molecule B1 registered an inhibition of HGP activity (BApNA and Azocasein substrates) of 80 to 85%.

B2: inhibitory repeat domain IRD-12 of Capsicum annuum Pin-II proteinase inhibitors (CanPIs) (peptide)
chain: NRLCTNCCAGRKGCNYYSADGTFICEGESDPNNPKACPRNCDPNIAYSLC
With B2, the HGPI activity of the IRD alone at its IC50 concentration came out at 51%; the inhibition of HGP activity (BApNA and Azocasein substrates) was in the range of 80 to 85%.

For the origin of these results see patent US20150087584A1.
